Measured values taken from paper PMC12774657.

Legend:
[1] = target: HIF1a bHLH-PASA-PASB;ARNT bHLH-PASA-PASB (;) (UniProt Q16665+P27540); assay: EMSA; details: EMSA: 10 nM probe, 20 mM Tris pH 8.0, 250 mM NaCl, 16 ug/ml salmon sperm ssDNA, 30 ug/ml BSA, 1.25 mM MgCl2, 6% glycerol, 10 mM DTT, room temperature 30 min …
[2] = target: HIF2a bHLH-PASA-PASB;ARNT bHLH-PASA-PASB (;) (UniProt Q99814+P27540); assay: EMSA; details: EMSA: 10 nM probe, 20 mM Tris pH 8.0, 250 mM NaCl, 16 ug/ml salmon sperm ssDNA, 30 ug/ml BSA, 1.25 mM MgCl2, 6% glycerol, 10 mM DTT, room temperature 30 min …

With TACGTG-containing EMSA probe the binding signal (fold affinity vs HIF2a/ARNT) [1] was 2 and the binding signal (reference (HIF1a/ARNT ~2 fold higher)) [2] was 1.
